In US8217140B2, “Peptides capable of binding to serum proteins and compounds, constructs and polypeptides comprising the same” (Ablynx N.V., priority 2008, dated 2012):

Legend:
[1] = cynomolgus monkey, in vivo
Method: The pharmacokinetic profile of the constructs was analyzed in male cynomolgus monkeys of approximately 3 to 4 years old and was compared to the reference (SEQ ID NO:165). The constructs and the control were each injected in three monkeys at a dose of 2 mg/kg via an intravenous bolus injection. Blood samples were taken at predose, 5 min, 20 min, 1 h, 2 h, 4 h, 8 h (test day 1) after administration and at test days 2, 3, 5, 7, 9, 12, 15, 18, 21, 24, 27, 30, 33. In order to obtain at least 1 mL plasma per animal per sampling time, a sufficient volume of whole blood was withdrawn per sampling time. Plasma was collected after whole blood centrifugation for 30 minutes at 2200 g at room temperature (RT). The plasma samples were stored at −80° C. until analysis.
For bioanalytical determination of constructs and control article in monkey plasma, plasma samples were tested for levels of constructs and the control using ELISA based PK assays. The detection of control and constructs in the ELISA assays is based on the binding of these Nanobodies with vWF and the assay set-ups are as such that total vWF-binding Nanobody is detected.
For the reference (SEQ ID NO:165) and the construct of SEQ ID NO:167, 96-well microtiter plates (Maxisorp, Nunc, Wiesbaden, Germany) were coated overnight at 4° C. with neutravidin (Pierce) in 10:10 buffer at 3 μg/ml. Wells were aspirated and blocked for 1 hour at RT with PBS/1% casein. After this blocking step, wells were washed with PBS/0.05% Tween20. A biotinylated bivalent Nanobody against the constructs was added to the neutravidin coated plate at 2 μg/ml in PBS/0.1% casein and incubated for 1 hour at RT. After the incubation step of this capture tool, wells were washed 3 times with PBS/0.05% Tween20.
Preparations of the standards, QC samples and dilutions of the test samples were performed in a non-coated (polypropylene) plate. For the standard curve and QC-samples, solutions at the required concentrations were prepared in PBS/0.1% casein and spiked into 100% monkey plasma. To prepare standards and QC samples, a 1/100 dilution of the pure monkey plasma dilutions was made in IgM-Reducing Agent (Immunochemistry Technologies, Bloomington, USA) supplemented with 2.5% pooled human plasma (referred to as sample diluent). For the test samples, dilution factors for the test samples were estimated, and ranged between 1/100 to 1/9000 for the reference of SEQ ID NO:165 tests and between 1/100 and 12000 for the construct of SEQ ID NO: 167. Samples were diluted 1/100 in sample diluent in a first step, and if needed, further dilution was done in sample diluent supplemented with 1% cynomolgus plasma.
Standards, QC samples and diluted test samples were transferred onto the coated plate and incubated for 1 hour at RT. Afterwards the plates were washed followed by a complexation step with purified vWF (ZLB Behring). vWF diluted to 2.5 μg/ml for the assay for the reference of SEQ ID NO:165 and to 3 μg/ml for the assay for the construct of SEQ ID NO: 167 in PBS/0.1% casein was incubated on the plates for 30 minutes at RT. Plates were washed and Nanobody/vWF complexes bound to the capture tool detected with Rabbit anti-human vWF Ab (Dako, Denmark), diluted 1/2000 in PBS/0.1% casein and incubated for 30 minutes at RT. After washing, a 1/15000 dilution in PBS/0.1% casein of Horse-Radish-Peroxidase labelled goat anti-rabbit Ab (Dako, Denmark) was added to the plate and incubated for 30 minutes at RT. The enzyme coupled to the Ab catalyzes a chemical reaction with the substrate sTMB (3,3′,5,5′-tetramethylbenzidine, SDT reagents, Brussels, Belgium), resulting in a colorimetric change. After stopping this reaction after 10 minutes using HC1 (1N), the intensity of the colour was measured using a spectrophotometer at 450 nm. […]

[2] = Chemical stability on storage at 37° C., RP-HPLC; type: physicochemical; conditions: 4 weeks incubation at 37° C. in D-PBS
Method: To evaluate the chemical stability of vWF0055, the Nanobody® vWF0055 was stored at 37° C. After 1, 2 and 4 weeks a sample was taken and analyzed for chemical or proteolytic modifications via RP-HPLC (Zorbax 300SB-C3, 4.6×150 mm (5 μm); trifluoroacetic acid/acetonitrile).

VWF = assay: Pharmacodynamic profile: ristocetin cofactor activity assay (% RICO) after i.v. administration; type: in vivo, Cynomolgus monkey
Method: For the constructs used in Example 14, pharmacodynamic characteristics upon compound administration were measured by means of a ristocetin cofactor activity assay (Biopool). The ristocetin cofactor activity is a functional assay for VWF, measuring the capacity of VWF to interact with the platelet receptor glycoprotein Ib using ristocetin as a modulator.
For pharmacodynamic data analysis, descriptive statistics (mean and SD) were calculated per dose group and per sampling time point using Microsoft Excel 2007. Response parameters and associated statistics for the overall time course were calculated by noncompartmental analysis of the response-time data using WinNonlin Pro 5.1 (Pharsight Corporation, USA; 2006). The non-compartmental analysis was based on a model for pharmacodynamic data (Model 220). The threshold value was set at 20% based on extensive historical PK/PD data on the vWF-0001 compound. Preclinical studies have shown that a complete inhibition of the pharmacodynamic marker are correlated with full antithrombotic efficacy. The following main pharmacodynamic parameters were determined: time below the threshold (Time below T), area under the threshold (AUC below T), time at which the % RICO first drops below the threshold (Tonset), and time at which the % RICO first returns back above the threshold (Toffset).

[3] = test system: platelet adhesion to fibrillar collagen; assay: Perfusion experiments: platelet adhesion to collagen at arterial shear rate; type: cell-based, human
Method: The perfusion experiments were performed with a single-pass perfusion chamber under non-pulsatile flow conditions using a modified small perfusion chamber with a slit height of 0.1 mm and a slit width of 2 mm. […] Citrated human blood was preincubated at 37° C. for 5 min with or without addition of test compound, and then perfused through the chamber for 5 min at a wall shear rate of 1600 s^−1 using an infusion/withdrawal pump (pump 22, model 2400-004, Harvard Apparatus, Holliston, Mass.). After the perfusion run, the coverslips were rinsed in Hepes buffered saline (10 mM Hepes, 150 mM NaCl, pH 7.4) and platelets were fixed with 5% glutaraldehyde and stained with May-Grünwald and Giemsa. Platelet deposition of the coverslip was evaluated as platelet surface coverage of 10 randomly chosen pictures using light microscopy (Olympus BX61 microscope using Analysis Five digital imaging solutions analysis software).

HSA = HSA (Homo sapiens, UniProt P02768); assay: Biacore analysis of pH dependency of binding
Method: (§1) The pH dependent binding of vWF0055 on HSA and cynoSA was investigated by surface plasmon resonance using a Biacore 3000 instrument by assessing the affinity at three different pH's. In brief, HSA and cynoSA were amine-coupled to a separate CM5 sensor chip at a density of respectively 1800RU and 1900RU. Diluted samples, ranging in concentration between 25 nM to 1 μM vW0055 were prepared in three buffers. The three buffers used contained 50 mM phosphate, 150 mM NaCl and 0.005% surfactant P and were adjusted to either pH5, pH7 or pH8. Samples were injected at a flow-rate of 45 μL/min, association and dissociation were monitored during 120 sec and 300 sec. Binding curves were subsequently used to calculate the KD, association- and dissociation-rate constants with the BiaEvaluation software.

cynoSA = cynoSA (Macaca fascicularis, UniProt A2V9Z4); assay: Biacore analysis of pH dependency of binding; design: species or system cynomolgus monkey
Chain of cynoSA (A2V9Z4 25-608): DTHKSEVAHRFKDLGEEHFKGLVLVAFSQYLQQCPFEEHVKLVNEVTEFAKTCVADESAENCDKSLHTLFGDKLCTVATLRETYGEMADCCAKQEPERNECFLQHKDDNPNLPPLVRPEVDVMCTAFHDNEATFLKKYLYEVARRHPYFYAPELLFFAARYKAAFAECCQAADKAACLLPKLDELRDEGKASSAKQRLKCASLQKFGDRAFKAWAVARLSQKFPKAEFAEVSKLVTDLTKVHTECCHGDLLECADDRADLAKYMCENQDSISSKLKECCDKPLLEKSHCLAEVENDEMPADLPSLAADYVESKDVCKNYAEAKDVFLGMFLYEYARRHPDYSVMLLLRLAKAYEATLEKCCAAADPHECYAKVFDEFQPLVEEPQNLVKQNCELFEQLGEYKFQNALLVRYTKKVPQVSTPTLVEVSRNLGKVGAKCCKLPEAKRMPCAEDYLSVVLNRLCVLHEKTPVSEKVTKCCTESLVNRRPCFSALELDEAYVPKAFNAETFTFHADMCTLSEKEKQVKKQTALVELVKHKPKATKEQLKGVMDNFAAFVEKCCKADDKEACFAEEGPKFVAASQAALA
Method: as §1

[4] = threshold 20% RICO, i.v. bolus 2 mg/kg, male Cynomolgus monkey, mean n = 3

decrease of affinity at pH5 (HSA; pH5): about 10 fold
pH at which the highest affinity was observed (HSA; pH5, pH7 or pH8 tested): 7
decrease of affinity at pH5 (cynoSA; pH5): about 10 fold
pH at which the highest affinity was observed (cynoSA; pH5, pH7 or pH8 tested): 7
B1: 12A2_sv1-AAA-12A2_sv1-9GS-59C2 (protein)
chain: DVQLVESGGGLVQPGGSLRLSCAASGRTFSYNPMGWFRQAPGKGRELVAAISRTGGSTYYPESVEGRFTISRDNAKRTVYLQMNSLRAEDTAVYYCAAAGVRAEQGRVRTLPSEYTFWGQGTQVTVSSAAAEVQLVESGGGLVQPGGSLRLSCAASGRTFSYNPMGWFRQAPGKGRELVAAISRTGGSTYYPESVEGRFTISRDNAKRTVYLQMNSLRAEDTAVYYCAAAGVRAEQGRVRTLPSEYTFWGQGTQVTVSSGGGGSGGGSRDWDFDVFGGGTPVGG
Vdss lower relative to vWF0001 [1]: 11 fold
dominant half-life (t½ dominant) increase relative to vWF0001 [1]: 85 fold
mean CL decrease compared to the control [1]: 26 fold
AUCinf ([1]; iv, 2 mg/kg): 1590 µg·h/mL
C0 ([1]; iv, 2 mg/kg): 46500 ng/mL
chemical modifications or proteolytic degradation [2]: neither chemical modifications nor proteolytic degradation occurred
Tonset values (VWF; estimated, i.v. application): ~5 min
mean AUC under the threshold increase relative to vWF0001 (VWF; i.v. bolus): 118 fold
time below the threshold increase relative to vWF0001 (VWF; i.v. bolus): 105 fold
AUC below T (VWF; [4]): 781 % RICO * h
Time below T (VWF; [4]): 127 h
Tonset (VWF; time % RICO first drops below threshold, i.v. bolus 2 mg/kg): 0.074 h
Toffset (VWF; time % RICO first returns above threshold, i.v. bolus 2 mg/kg): 127 h
Effective concentration compared to VWF0001 ([3]; FIG. 12): similar
inhibition of platelet adhesion to fibrillar collagen at arterial shear rate ([3]; citrated human blood, wall shear rate 1600 s^−1, FIG. 12): dose-dependently and completely inhibit
